Test results as given in paper PMC9449809 (Frontiers in Immunology, 2022).

Target: SARS-CoV-2 spike protein receptor-binding domain, Wuhan-Hu-1 sequence (SARS-CoV-2, UniProt P0DTC2)
Assay: ELISA
Details: both partners purified

Binder	binding result
monoclonal antibody REGN10987 (imdevimab) (antibody, V domains shown) VH: QVQLVESGGGVVQPGRSLRLSCAASGFTFSNYAMYWVRQAPGKGLEWVAVISYDGSNKYYADSVKGRFTISRDNSKNTLYLQMNSLRTEDTAVYYCASGSDYGDYLLVYWGQGTLVTVSS VL: QSALTQPASVSGSPGQSITISCTGTSSDVGGYNYVSWYQQHPGKAPKLMIYDVSKRPSGVSNRFSGSKSGNTASLTISGLQSEDEADYYCNSLTSISTWVFGGGTKLTVL	binds
monoclonal antibody REGN10933 (casirivimab) (antibody, V domains shown) VH: QVQLVESGGGLVKPGGSLRLSCAASGFTFSDYYMSWIRQAPGKGLEWVSYITYSGSTIYYADSVKGRFTISRDNAKSSLYLQMNSLRAEDTAVYYCARDRGTTMVPFDYWGQGTLVTVSS VL: DIQMTQSPSSLSASVGDRVTITCQASQDITNYLNWYQQKPGKAPKLLIYAASNLETGVPSRFSGSGSGTDFTFTISGLQPEDIATYYCQQYDNLPLTFGGGTKVEIK	binds
